In patent US20250042994A1 (HAINAN SIMCERE ZAIMING PHARMACEUTICAL, published 2025):
Blank lines part the entries; values can stand above or below the binder they belong to.

Tests used:
[1] = target: T1, human CD19 on Raji cells (human, UniProt P15391 20-556); assay: FACS on Raji cells
T1 construct: whole, on cells
T1 sequence (looked up): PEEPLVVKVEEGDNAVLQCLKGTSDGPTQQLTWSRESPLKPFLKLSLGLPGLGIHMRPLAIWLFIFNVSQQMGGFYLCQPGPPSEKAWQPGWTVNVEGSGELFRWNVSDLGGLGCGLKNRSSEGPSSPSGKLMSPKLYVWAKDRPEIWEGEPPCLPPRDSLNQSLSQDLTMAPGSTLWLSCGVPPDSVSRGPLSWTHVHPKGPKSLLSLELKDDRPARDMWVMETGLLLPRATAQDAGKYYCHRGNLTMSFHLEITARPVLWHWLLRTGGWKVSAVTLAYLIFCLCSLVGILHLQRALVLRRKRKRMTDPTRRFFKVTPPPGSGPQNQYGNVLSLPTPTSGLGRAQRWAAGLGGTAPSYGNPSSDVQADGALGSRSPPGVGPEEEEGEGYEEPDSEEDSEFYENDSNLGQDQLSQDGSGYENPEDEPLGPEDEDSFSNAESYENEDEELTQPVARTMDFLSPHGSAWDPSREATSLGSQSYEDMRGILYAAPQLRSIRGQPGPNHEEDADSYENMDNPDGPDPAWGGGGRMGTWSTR

[2] = target: T2, human CD19 on CHO-K1-human CD19 cells (human, UniProt P15391 20-556); assay: FACS on CHO-K1-human CD19 cells
T2 construct: whole, on cells; also called CHO-K1-human CD19-2C8
T2 sequence (looked up): T1 sequence (looked up)

[3] = target: T3, monkey CD19 on HEK293T-monkey CD19 cells (monkey); assay: FACS on HEK293T-monkey CD19 cells
T3 construct: whole, on cells
In short: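 Cells blocked in PBS + 2% (w/w) BSA at 2×10⁶ cells/ml, then incubated with test antibody on ice for 2 h. After washes, binding read by flow cytometry as mean fluorescence intensity (MFI). EC50 from fitted MFI curves. Parental HEK293T cells run by the same method.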

[4] = target: T4, cynomolgus monkey CD19 on peripheral blood B cells (cynomolgus monkey (Macaca fascicularis), UniProt A0A2K5W8L9 20-557); assay: FACS, cynomolgus PBMC, CD20+ B cells
T4 construct: whole, on cells; also called cynomolgus monkey B cells
T4 sequence: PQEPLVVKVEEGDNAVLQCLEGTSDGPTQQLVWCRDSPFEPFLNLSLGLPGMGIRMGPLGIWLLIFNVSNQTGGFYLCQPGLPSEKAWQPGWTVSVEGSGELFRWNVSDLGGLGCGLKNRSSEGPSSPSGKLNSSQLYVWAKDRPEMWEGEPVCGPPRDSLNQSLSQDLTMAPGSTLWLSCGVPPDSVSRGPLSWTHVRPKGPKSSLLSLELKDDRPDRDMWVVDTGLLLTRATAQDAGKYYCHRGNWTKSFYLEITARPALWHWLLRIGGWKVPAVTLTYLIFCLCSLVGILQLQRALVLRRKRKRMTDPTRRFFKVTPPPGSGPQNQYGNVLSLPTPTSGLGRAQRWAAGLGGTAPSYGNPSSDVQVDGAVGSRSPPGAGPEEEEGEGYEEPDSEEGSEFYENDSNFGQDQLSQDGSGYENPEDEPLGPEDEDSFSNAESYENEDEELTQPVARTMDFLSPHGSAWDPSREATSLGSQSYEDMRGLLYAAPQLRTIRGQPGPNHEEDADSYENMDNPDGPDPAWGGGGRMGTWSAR

[5] = target: T4, cynomolgus monkey CD19 on peripheral …; assay: FACS, cynomolgus monkey PBMC, 1 nM antibody, co-stained with CD20 antibody
Description: The monkey peripheral blood mononuclear cells were extracted from fresh cynomolgus monkey peripheral blood (purchased from Shanghai Medicilon Inc.) according to the instructions of Ficoll-Paque Plus (purchased from GE Healthcae, catalog number: 171440-02). After the cell suspension was centrifuged, the cells were resuspended in PBS containing 1% BSA, and then the cells were counted. […] The mixture was incubated for 1 h at room temperature. After washing the cells three times, APC-labeled secondary antibody anti-human IgG Fc (catalog number: 409306, purchased from Biolegend) was added. After incubation at room temperature in the dark for 30 minutes, the cells were washed 5 times, gently resuspended with PBS containing 1% BSA, and detected and analyzed by FACS (FACS Canto™, purchased from BD Company), in which CD20 was used as a marker of B cells to gate the CD20-positive B cell population, the proportion of the chimeric antibody-labeled positive cells was analyzed, and the proportion of the chimeric antibody positive cell population to B cell population was calculated after treatments with the chimeric antibodies at the concentrations of 100 nM, 10 nM and 1 nM, respectively.

[6] = target: T5, monkey CD19 protein (monkey); assay: ELISA, coated monkey CD19 protein
T5 construct: also called monkey CD19-His protein
Description: (§1) Human CD19-his protein (purchased from ACROBiosystems, catalog number: CD9-H52H2) was diluted with PBS to a final concentration of 4 μg/mL, and then added to a 96-well ELISA plate at 100 μl/well. The plate was sealed with a plastic film and incubated overnight at 4° C., the plate was washed 2 times with PBS the next day, and then a blocking solution [PBS+2% (w/w) BSA] was added for blocking at room temperature for 2 h. The blocking solution was poured off, and 100 nM gradiently diluted CD19 chimeric antibody or control antibody was added at 50 μl/well. After incubation at 37° C. for 2 h, the plate was washed 3 times with PBS. […] TMB substrate was added at 50 μl/well, and incubated at room temperature for 10 min, and then a stop solution (1.0 N HCl) was added at 50 μl/well. The OD450 nm values were read by an ELISA microplate reader (Multimode Plate Reader, EnSight, purchased from Perkin Elmer).
(§2) In order to detect the species cross-binding activity of the chimeric antibodies, an ELISA plate was coated with commercial murine CD19 (ACROBiosystems, catalog number: 50510-M08H) and monkey CD19 (ACROBiosystems, catalog number: 90051-C08H), respectively, and the ELISA detection was performed according to the method in example 5.1.

[7] = target: T5, monkey CD19 protein; assay: ELISA on coated monkey CD19-His
Description: as §1, §2

EC50 [1]: 1.31 nM | Maximum mean fluorescence intensity [1]: 26100 | EC50 [2]: 1.09 nM | Maximum mean fluorescence intensity [2]: 56700 | Maximum mean fluorescence intensity [3]: 81 | Proportion of chimeric antibody positive cells to B cells (%) at 1 nM [4]: 1% | Proportion of chimeric antibody positive cells to B cells (%) at 10 nM [4]: 2% | Proportion of chimeric antibody positive cells to B cells (%) at 100 nM [4]: 4% | ratio of chimeric antibody-labeled positive cells to CD20 positive cells [5]: 2%
B1: F4.58.6 (antibody, human IgG1, V domains shown)
VH: QVQLQQPGAELVKPGASVKLSCKASGYTFTSYWMHWVKQRPGQGLEWIGEIDPSDSYSNYNQKFKGKATLTVDKSSSTAYMQLSSLTSEDSAVYYCARSNYGSSYGYFDVWGAGTTVTVSS
VL: QIVLTQSPAIMSASPGEKVTMTCSVSSSLSYMHWYQQKPGTSPKRWIYDTSKLASGVPARFSGSGSGTSYSLTISSMEAEDAATYYCHQRSSYPTFGGGTKLEIK
notes: human-murine chimeric antibody, human IgG1

EC50 [1]: 2.46 nM | Maximum mean fluorescence intensity [1]: 19100 | EC50 [2]: 1.35 nM | Maximum mean fluorescence intensity [2]: 47500 | OD450 at 0.0001 nM [6]: 0.08 OD450 | OD450 at 0.001 nM [6]: 0.12 OD450 | OD450 at 0.01 nM [6]: 0.41 OD450 | OD450 at 0.10 nM [6]: 1.44 OD450 | OD450 at 1.00 nM [6]: 1.93 OD450 | OD450 at 10 nM [6]: 2.04 OD450 | OD450 at 100 nM [6]: 1.93 OD450 | EC50 [3]: 1.27 nM | Maximum mean fluorescence intensity [3]: 112000 | Proportion of chimeric antibody positive cells to B cells (%) at 1 nM [4]: 23% | Proportion of chimeric antibody positive cells to B cells (%) at 10 nM [4]: 65% | Proportion of chimeric antibody positive cells to B cells (%) at 100 nM [4]: 92% | EC50 (read off the curve) [7]: ~0.04 nM
B2: F3.124.7 (antibody, human IgG1, V domains shown)
VH: EVQLQQSGPVLVKPGASVKMSCKASGYTFTDYYMNWVKQRHGKSLEWIGISNPYNGGTSYNQKFKDKATLTVDKSSSTAYMELNSLTSEDSAVYYCAREGGTAQPTSGMDYWGQGTSVTVSS
VL: NIMMTQSPSSLAVSAGEKVTMSCKSSQSVLYSSNQKNYLAWYQQKPGQSPKLLIYWASTRESGVPDRFTGSGSGTDFTLTISSVQPEDPAVYYCHQYRSSYTFGGGTKLEIK
notes: as for B1

Continued, binder first:

B3: F3.118.14 (antibody, human IgG1, V domains shown)
VH: QVQLQQSGAELVRPGASVTLSCKASGYTFPDYEIHWVKQTPVHGLEWIGAIDPETGGIGYNQKFTGKAMLTADKSSSTAYMELRSLTSEDSAVYFCTRNYGSRWGQGSTLTVSS
VL: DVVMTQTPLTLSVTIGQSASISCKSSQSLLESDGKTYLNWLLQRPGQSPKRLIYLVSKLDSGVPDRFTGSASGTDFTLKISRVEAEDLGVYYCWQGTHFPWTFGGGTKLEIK
notes: as for B1
EC50 [1]: 8.38 nM | Maximum mean fluorescence intensity [1]: 25900 | EC50 [2]: 18 nM | Maximum mean fluorescence intensity [2]: 3380 | OD450 at 0.0001 nM [6]: 0.07 OD450 | OD450 at 0.001 nM [6]: 0.1 OD450 | OD450 at 0.01 nM [6]: 0.24 OD450 | OD450 at 0.10 nM [6]: 1.11 OD450 | OD450 at 1.00 nM [6]: 2.05 OD450 | OD450 at 10 nM [6]: 2.4 OD450 | OD450 at 100 nM [6]: 2.75 OD450 | EC50 [3]: 9.64 nM | Maximum mean fluorescence intensity [3]: 156000 | Proportion of chimeric antibody positive cells to B cells (%) at 1 nM [4]: 6% | Proportion of chimeric antibody positive cells to B cells (%) at 10 nM [4]: 25% | Proportion of chimeric antibody positive cells to B cells (%) at 100 nM [4]: 79% | EC50 (read off the curve) [7]: ~0.2 nM

B4: F5.11.2 (antibody, human IgG1, V domains shown)
VH: EVQLVESGGDLVKPGGSLKLSCAASGFTFSSYGMSWVRQTPDKRLEWVATISHGGSYTHYPDSVKGRFTISRDNAKNTLYLQMNSLKSEDTAMYYCVRLPITTVEAPYFFDYWGQGTTLTVSS
VL: DIQMTQTTSSLSASLGDRVTISCRASQDIRNYLNWYQQKPDGTVKLLIYYTSILHSGVPSRFSGSGSGTDYSLTINNLEQEDVATYFCQQGNTLYTFGGGTEVELR
notes: as for B1
EC50 [1]: 23.4 nM | Maximum mean fluorescence intensity [1]: 16600 | EC50 [2]: 14.7 nM | Maximum mean fluorescence intensity [2]: 46600 | OD450 at 0.0001 nM [6]: 0.06 OD450 | OD450 at 0.001 nM [6]: 0.06 OD450 | OD450 at 0.01 nM [6]: 0.06 OD450 | OD450 at 0.10 nM [6]: 0.12 OD450 | OD450 at 1.00 nM [6]: 0.71 OD450 | OD450 at 10 nM [6]: 1.25 OD450 | OD450 at 100 nM [6]: 1.16 OD450 | EC50 [3]: 13 nM | Maximum mean fluorescence intensity [3]: 80600 | Proportion of chimeric antibody positive cells to B cells (%) at 1 nM [4]: 12% | Proportion of chimeric antibody positive cells to B cells (%) at 10 nM [4]: 34% | Proportion of chimeric antibody positive cells to B cells (%) at 100 nM [4]: 76% | EC50 (read off the curve) [7]: ~0.8 nM

B5: F3.77.6 (antibody, human IgG1, V domains shown)
VH: EFQLQQSGPELVKPGASVKISCKASGYSFTDYNMNWVKQSNGKSLEWIGTINPNYITSYNQKFKGKATLTVDQSSSTAYMQLNSLTSEDSAVYYCAGDYKGYWGQGTTLTVSS
VL: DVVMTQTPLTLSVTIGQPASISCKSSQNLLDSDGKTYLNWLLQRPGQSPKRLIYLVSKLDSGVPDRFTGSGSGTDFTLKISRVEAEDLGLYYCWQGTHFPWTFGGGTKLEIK
notes: as for B1
EC50 [1]: 1.62 nM | Maximum mean fluorescence intensity [1]: 27400 | EC50 [2]: 3.13 nM | Maximum mean fluorescence intensity [2]: 4990 | OD450 at 0.0001 nM [6]: 0.07 OD450 | OD450 at 0.001 nM [6]: 0.11 OD450 | OD450 at 0.01 nM [6]: 0.38 OD450 | OD450 at 0.10 nM [6]: 1.48 OD450 | OD450 at 1.00 nM [6]: 2.27 OD450 | OD450 at 10 nM [6]: 2.51 OD450 | OD450 at 100 nM [6]: 2.49 OD450 | EC50 [3]: 6.45 nM | Maximum mean fluorescence intensity [3]: 179000 | Proportion of chimeric antibody positive cells to B cells (%) at 1 nM [4]: 4% | Proportion of chimeric antibody positive cells to B cells (%) at 10 nM [4]: 18% | Proportion of chimeric antibody positive cells to B cells (%) at 100 nM [4]: 56% | EC50 (read off the curve) [7]: ~0.07 nM
